Reference: US10188739B2 (Xenetic Biosciences, Inc., priority 2014, dated 2019)
Where two headings read alike, the source gives them in different places.

Key:
[1] = design: species or system CD-1 mice; settings: mouse, in vivo, 10.5 mg/kg
Description: Male CD-1 mice of 8 to 9 weeks of age (18-20 g body weight) were acclimatized for 7 days before being enrolled into the study. Mice were weighed and dosed at 5 μL of dosing material per 20 g of body weight. […] Animals were anesthetized and held with the dorsal end facing down. Dosing materials were administered at a rate of ˜1 μL/10 seconds split equally through both nostrils. Total dosing time ranged from 1.8 to 2.3 minutes. After a nominal 10 minutes post-dose, animals were sacrificed followed by blood collection, perfusion, and tissue collection. The olfactory bulbs were included in the collection of the brain tissues. All tissues were stored at nominal −80° C. until assay. Perfusate contains: 1×PBS pH 7.4, +2.7% w/v BSA+100 U/mL heparin. Lung/Liver/Kidney/Spleen. […] To evaluate recovery and matrix differences between the calibration matrices and study test samples, a spiking recovery experiment was performed (Table 2). […] The RFU correction factor was determined by dividing the response of each analyte spiked into BALB-c lysates (preparation procedures described below) by the response of each analyte spiked into CD-1 homogenate and then extracted. For kidney and liver matrices, there was enough material available to evaluate spiking recovery at two different levels. […] Read plate at Ex/Em 635/675 4. […]

[2] = design: species or system CD-1 mice; settings: mouse, in vivo
Description: Male CD-1 mice of 8 to 9 weeks of age (18-20 g body weight) were acclimatized for 7 days before being enrolled into the study. Mice were weighed and dosed at 5 μL of dosing material per 20 g of body weight. […] Animals were anesthetized and held with the dorsal end facing down. Dosing materials were administered at a rate of ˜1 μL/10 seconds split equally through both nostrils. Total dosing time ranged from 1.8 to 2.3 minutes. After a nominal 10 minutes post-dose, animals were sacrificed followed by blood collection, perfusion, and tissue collection. The olfactory bulbs were included in the collection of the brain tissues. All tissues were stored at nominal −80° C. until assay. Perfusate contains: 1×PBS pH 7.4, +2.7% w/v BSA+100 U/mL heparin. […] Read plate at Ex/Em 635/675.

## Sialong: polysialyated insulin conjugate by N-terminal (B-chain) aldehyde conjugation using 15 kDa CAO; tested labelled with AF-647 (Sialong^AF647)
[1]
  Lung % Dose: 0.01 % Dose
[2]; 2.1 mg/kg
  Plasma % Dose: 0.0 % Dose
[2]; 10.5 mg/kg
  Plasma % Dose: 0.01 % Dose
